Data taken from the nanobody polyreactivity screen of Harvey et al. (2022).

Test: yeast display, Sf9 membrane polyspecificity reagent, FACS + sequencing; frameworks hold sequencing errors
Method in brief: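 Galactose-induced (36–48 hours) yeast carrying a synthetic nanobody display library were exposed to 10% biotinylated, detergent-solubilized Sf9 membrane reagent at 4 °C for 1 hour. FACS followed streptavidin microbead enrichment, using low and high (top ~1%) gates for expression (anti-HA) and reagent binding (streptavidin). Colony PCR, MiSeq 2 × 250 sequencing and CDR-length filtering followed. Labels for polyreactivity reflect the gate of origin.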

Sequence	polyreactivity (PSR sort gate)
QVQLVESGGGLVQAGGSLRLSCAASGRTVAPYAMGWYRPAPGKERELVAGITYRTGNTYYADSVKGRFTISRDNAKNTVYLQMNSLKPEDTAVYYCAAYSGYYRPRYNFWGQGTQVNVSS	high polyreactivity
QVQLVESGGGLVQAGGSLRLSCAASGRTCPRYGLGWYRQAPGKERELVATIRTGGRTNYADSVKGRFTISRDNAKNTVYLQMNSLKPEDTAVYYCATDSSKHPYSPTLLKFDYWGQGTQVTVSS	low polyreactivity
QVQLQESGGGLEQAGGSLRMSCAASGTIFSEANMGWYRQAPGKERELVATIGQGSTTNYADSVKGRFTISRDNAKNTVYLQMNSLKPEETPVYYCAVVTVDPVGFVYWGQGTQVTVSS	low polyreactivity
QVQLVESVGGLVQAGGSLPLSSAASGSIFYRYALGWYRQAPGKERELVAAISDRSGSTYYADSVKGRFTISRDNAKNTVYLQMNSLKPEATAVYYCAASYNYRAAGYGLSRYYYWGQGTQVTVSS	high polyreactivity
QVQLVESAGGLVQAGGSLRLSCAASGFIFVRNAMGWYRPAPGKVRELVAAISRSGGRTYNADSVKGRFTISRDNAKNTVYLQMNSLKPEDTAVYYCAARSGYFRSRFDYWGQGTQVTVSS	high polyreactivity
QVHLVESGGGLVQAGGSLRLSCAASGLTFYPNAMGWYRQAPGKERELVAAITYSTGSTYADSVKGRFTITRDNAKNTVFLQMNSLKPEDSAVYDCAAYWSRVRYGMNYWGQGTQVTVSS	high polyreactivity
QVQLVESGGGLVQAGGSLRLSCAASGFIFRRNAMGWYRQAPGKERELVAAITGGGGSTYYADSVKGRFTISRDNAKNTVYLQMNSLKPEDTAVYYCAVDWSRFYNRGGDYWGQGTQVTVSS	high polyreactivity
QVQLVESGGGLVQAGGSLRLSCAASGRTFSGYVMGWYRQAPGKERELVATINGSGASTYYADSVKGRFTISRDNAKNTVYLQRKSLKPEDSAVYYCAAKRYRPKYEYYYWGQGTQVTVSS	high polyreactivity
QVQLVESGGGLVQAGGSLRLSCAASGSTFRINAMGWYRQAPGKERELVADINSGGNTTYADSVKGRFTISRDNAKNTVYFQMNSLKPEDTAVYYCAAAPVFDLWVFLLDYGYDYWGQGTQVTVSS	low polyreactivity
QFQLVDSGRGLVQAGGSLRVSCAASGITFAYYAMGWYRQAPGKERELVAAISRSGGGTYYADSVKGRFTISRDNAKNPVYLQMNSLKPEDTAVYYCNKDYPYYYAGDGRFDYWGQGTQVTVSS	high polyreactivity
QVQLVESGGGLVQAGGSLRLSCAASGSIFGFYAMGWYIQAPGKERELVAAISDSGDSTYYADSVKGRFTISRDNAKNTVYLQMNSLKPEDTAVYYCATDGRSNYYWGDYWGQGTHVTVSS	low polyreactivity
QGQLVESGGGLVQAGGSLRLTCAASGITFDDYAMGWYRQAPGKERELVAAISWSGDITYYADSVKGRFTSSRDNATNTVYLQMNSLKPEDTAVYYCAADLSPYGYDYWGQGTQVTVSS	low polyreactivity
QVQLVESGGGLVQAGGSLRLSCAASGRTFSYYAMGWYRPAPGKERELVARITYRGGRTYYADSVKGRFTISRDNAKNTVYLQMNSLKPEDTAVYYCATTSWRYGYDYWGQGTQVTVSS	high polyreactivity
QVQLVESGGGLVQAGGSLRLSCAASGFIFIYDMGWYRQAPGKERELVAAITSSDGSTYYADSVKGRFTISRDNAKNTVYLQMNSLKPEDTAVYYCNAKYPWGNYNSVSYDYWGQGTQVTVSS	high polyreactivity
QVQLVESGGGLVQAGGSLRLSCAASGRIFTTYALGWYRQAPGKERELVATITSGGDTSYADSVKGRFTISRDNAKNTVYLQMNSLKPEDTAVYYCNVGASLDQCSIPFEGYYYWGQGTQVTVSS	low polyreactivity
QVQLVESGGGLVQAGGSLRLSCAASGFTFGHYAMGWYRQAPGKQRELVAAISYSGVRTYYADSVKGRFTISRDNAKNTVYLQMNSLKPEDTAVYYCNKYPAHYQTRRYDYWGQGTQVTVSS	high polyreactivity
QVQLVESGGGLVQAGGSLRLSCAASGLIFRKNAMGWYRQAPGKERELVAAISSSDSSTYADSVKGRFTISRDNAKNTVYLQMYSLKPEDTAVYYCAAASYNWLDWVTREYWGQGTQVTVSS	low polyreactivity
QVQLVESGGGLVQAGGSLRLSCAASGGMGWYRQAPGKERELVATISSVGSTNYADSVKGRFTISRDNAKNTVYLQMNSLKPEDTAVYYCNANGVQYFLYGYWGQGTQVTVSS	low polyreactivity
EEELVESGGGLVQAGGSLRLSCAASGSTFLVYAMGWYRQAPGKERELVAVITSGGRTNYADSVKGRFTISRDNAKNTVYLQMNSLKPEDTAVYYCAVDGRSVPAWWPRFDYWGQGTQVTVSS	low polyreactivity
QVQLVESGGGLVQAGGSLRLSCAASGRIFYYNAMGWYRQAPGKERELVAAINYRGGSTYYADSVKGRFTISRDNAKNTVYLQMNSLKPEDTAVYYCAARYWEDGSTYDYWGQGTQVTVSS	high polyreactivity
HVHLVESGGGLVQAGGSLRLSCASSGPTFGWNVMGWYRQAPGKERELVAAISGSGGSTYYADSVKGRFTISRDNAKNTVYSQMNSLKPEDTAVYYCAALYGPGREYDYWGQGTQVSVSS	low polyreactivity
QVQLVESGGGLVQAGGSLRLICAASGRIFNYNYMGLYRQAPGKERELLAAISWRGGSTYYADSVKGRFTISRDNAKNTVYLQMKSLKPEDTAVYYCNKRTRYSTGSRYDYWGQGTQVTVSS	high polyreactivity

Sequence	polyreactivity (PSR sort gate)
QVQLVESGGGLVQAGGSLRLSCAASGSTFDGNAMGWYRQAPGKERELVAAITSGGSTNYADSVKGRFTILRDNAKNTVYLQMNSLKPEDTAVYYCAAGWLYARWHSYVGYYYWGQGTQVTVSS	low polyreactivity
QVQLVESGGGLVQAGGSLRLSCAASGSIFVSNTMGWYRQAPGKEREMVASIRETAGSTNYADSVKGRFTISRDYAKNTFYLQMNSLKPEDTAVYYCAARYSPTRYHYGYWGQGTQVTVSS	low polyreactivity
QVQLLESGGGLVQAGVSLRLSCSASGFTFGRYAMGCYRQAHGKERELVAGITWSGGSTSYADSVKGRFTISRDNAKNTVYLQMNSLKPEDTAVYYCATRARYTRVHGRRYAYDYWGQGTQVTVSS	high polyreactivity
QVQLQESGGGLVQASGSLRLSCAASGNIFPDYVMGWYRLAPGKEREFVANITGGSTTNYADSVKGRFTIIRDNAKNTVYLQMNSLKAEDTAVYYCAVNFGTVVLYLYWGQGTQVTVSS	high polyreactivity
QVQLVESGGGLVQAGGSLRLSCAASGYIYDYNAMGWYRQAPGKERELVAAITFRDGSTYADSVKGRFTISRDNGKNTVYLQMNSLKPEDTAVYYCNRRSQVHSHSKHDDWGQGTQVTVSS	low polyreactivity
QVQLVESGGGLLQAGGSLRLSCAASGSIYTPYAMGWSRQAPGKERELVATITQSGSSTYYADSVKGRFTISRDNAKNSVYLQMNSLKPEDTAVYYCAADVQNISFDYWGQGTQVTVSS	low polyreactivity
QVQLVESGGGLVQAGGRLRLSCAASGATFYVYAMGWYRQAPGKERELVATIDSTDGDTYADSVKGRCTISRDNAKKTVYLQMNSLKPEDTAGYDCAATDLNIYYGYYDSWYWYELDYWGQGTQVTVSS	high polyreactivity
QVQLVESGGGLVQAGGSLRLSCAASGRTFVPYDMGLYRQAPGKERELVAAISSGDSTNYTDSVKGRFTISRDNAKNTVYLQMNSLKPEDTAVYYCAADLTYTMDHWGQGTQVTVSS	low polyreactivity
QVQLVESGGGLVQAGGSLRLSCAASGFIFIHYAMGWYRQAPGKERELVAAINRRGSRTYYADSVKGRFTISRDNAKNTVYLQMNSLKPEDSAVYYCAAGSRTEYDYWGQGSQVTVSS	high polyreactivity
QVQLVESGGGLVQAGGSLRLSCAASGFILNKNVMGWYRQAPGKERELVAAITASGSSTYYADSVKGRFTISRDNAKNTVYLQMNSLKPEDTAVYYCAARGYWSSYAPRFNYWVQGTQVTVSS	high polyreactivity
QVQLVESGGGLVQAGGSLRLSCAASGSIFSQYAMGWYRQAPGKERELVAAISGGGGSTSYADSVKGRFTISRDNAKNTVYLQMNSLKPDDTAVYYCAAYLYNRPYQLTGYYDGYGYWGQGTQVTVSS	low polyreactivity
QVQLVESGGGIVQAGGSLRLSCAASGYIFQYYAMGWYRQAPGKERELVAAITGGGSTKYADSVKGRFTISRDNAKNTVYLQMNSLKPEDTAVYYCAASLWYRISKYDYWGQGTQVTVSS	high polyreactivity
QVQLVESGGGLVQAGGSLRLSCAASGITFSYYAMGWYRQAPGKERELVATIRSSGGSTYYADSVKGRFTISRDNAKNTVYLQMNSLKPEDTAVYYCAVRLWFDYNYWGQGTQVTVSS	low polyreactivity
QVQLVESGGGLVQAGGSLRLSCAASGSTFRYYAMGWYRQAPGKERELVAAISSSGGRTYYADSVKGRFTISRDNAKNTVYLQMNSLKPEDTAVYYCAALYLRYHYGTDFDYWGQGTKVTVSS	high polyreactivity
QVQLVESWGGLVQAGGSLRLSCAASGGTFRKNTMGWYRQAPGKERELVAAITRRADRTYYADSVKGRFTISRDNAKHTVYLQMNSLKPEDTAVYYCNAPPPPTKVGGYDYWGQGTQVTVSS	high polyreactivity
QVQLVESGACLVQAGGSLRLSCAASGITLVNYAMGWYRQAPGKERELVAAISASGGSTYYADSVKGRFTISRDNAKNNVYLQMNSLKPEDTAVYYCAAEEEEFIYDYWGQGTQVTVSS	high polyreactivity
QVQLEESGGGLVQAGGSLRLSCAASGFILTGNVMGWYRQAPGKEREFVAGISRSGGTYYADSVKGRFTISRDNAKNTVYLQMNSLKPEDTAVYYCAAKPIYYSRGYYWGQGTQVTVSS	high polyreactivity
QVQLVESGGGLVQAGGSLRLSCAASGFTFDSYAMGWYRQAPGKERELVAAITWDGGSTYYADSVKGRYTISRDNAKNTVYLQMNSLKPEETAVYYCAADFGTISIDVYSWMDYWGQGTQVTVSS	low polyreactivity
QVQLVESGGGLVQAGGSLRLTCAASRRIFSYYAMGDYIQATGKERELVADINWSGGSTYYADSVKGRFTISRDNAKNTFYLQMNSLKPEDTAVYYCAVDWTSAYGTYYYTPYDSWGQGTQVTVSS	low polyreactivity
QVQLVQSGVGLVQAGGSLRLSCAASGSIFSYYVMGWYRQAPGKERELVAAISWSGGSTYYADSVKGRFTISRDNAKNTVYLQMNSLKPEDTAVYYCAAGTYPYYWVQGTQVTVSS	low polyreactivity
QVQLVESGGGLVQAGGSLRLSCAASGSTLNSYVMGWYRQAPGKERELVATIRSGSSTNYADSVKGRFTISLDNAKNTVYLQMNSLKPVDTAVYYCSRDDRLAGDYWGQGTQVTVSS	low polyreactivity
